In patent US20240400703A1:

Assays:
[1] = target: recombinant human OX40 fused to a His-tag (Acro Biosystems, cat. no. OX0-H5224) (human) (UniProt P43489); assay: BLI cross-block; first Ab (competitor): IgG1-CD134-003
[2] = target: recombinant human OX40 fused to a His-tag (Acro Biosystems, cat. no. OX0-H5224) (human) (UniProt P43489); assay: BLI cross-block; first Ab (competitor): IgG1-CD134-RG7888
[3] = target: recombinant human OX40 fused to a His-tag (Acro Biosystems, cat. no. OX0-H5224) (human) (UniProt P43489); assay: BLI cross-block; first Ab (competitor): IgG1-CD134-A4453
[4] = target: recombinant human OX40 fused to a His-tag (Acro Biosystems, cat. no. OX0-H5224) (human) (UniProt P43489); assay: BLI cross-block; first Ab (competitor): IgG1-CD134-012
[5] = target: recombinant human OX40 fused to a His-tag (Acro Biosystems, cat. no. OX0-H5224) (human) (UniProt P43489); assay: BLI cross-block; first Ab (competitor): IgG1-CD134-ABBV368
[6] = target: recombinant human OX40 fused to a His-tag (Acro Biosystems, cat. no. OX0-H5224) (human) (UniProt P43489); assay: BLI cross-block; first Ab (competitor): IgG1-CD134-Hu106
[7] = target: recombinant human OX40 fused to a His-tag (Acro Biosystems, cat. no. OX0-H5224) (human) (UniProt P43489); assay: BLI cross-block; first Ab (competitor): IgG1-CD134-SF2
[8] = target: recombinant human OX40 fused to a His-tag (Acro Biosystems, cat. no. OX0-H5224) (human) (UniProt P43489); assay: BLI cross-block; first Ab (competitor): IgG1-CD134-INCAGN1949
[9] = target: recombinant human OX40 fused to a His-tag (Acro Biosystems, cat. no. OX0-H5224) (human) (UniProt P43489); assay: BLI cross-block; first Ab (competitor): IgG1-CD134-GBR830
[10] = target: recombinant human OX40 fused to a His-tag (Acro Biosystems, cat. no. OX0-H5224) (human) (UniProt P43489); assay: BLI cross-block; first Ab (competitor): IgG1-CD134-11D4
[11] = target: recombinant human OX40 fused to a His-tag (Acro Biosystems, cat. no. OX0-H5224) (human) (UniProt P43489); assay: BLI cross-block; first Ab (competitor): IgG1-CD134-h3C8
[12] = target: recombinant human OX40 fused to a His-tag (Acro Biosystems, cat. no. OX0-H5224) (human) (UniProt P43489); assay: BLI cross-block; first Ab (competitor): IgG1-CD134-49B4-RRE
[13] = target: recombinant human OX40 fused to a His-tag (Acro Biosystems, cat. no. OX0-H5224) (human) (UniProt P43489); assay: BLI cross-block; first Ab (competitor): IgG1-CD134-007
[14] = target: recombinant human OX40 fused to a His-tag (Acro Biosystems, cat. no. OX0-H5224) (human) (UniProt P43489); assay: BLI cross-block; first Ab (competitor): IgG1-CD134-003-HC6LC2-RR
[15] = target: recombinant human OX40 fused to a His-tag (Acro Biosystems, cat. no. OX0-H5224) (human) (UniProt P43489); assay: BLI cross-block; first Ab (competitor): IgG1-CD134-MEDI0562
[16] = target: recombinant human OX40 fused to a His-tag (Acro Biosystems, cat. no. OX0-H5224) (human) (UniProt P43489); assay: BLI cross-block; first Ab (competitor): IgG1-CD134-IBI101

recombinant human OX40 fused to a His-tag (Acro Biosystems, cat. no. OX0-H5224) (human), sequence (P43489 29-214 limits assumed): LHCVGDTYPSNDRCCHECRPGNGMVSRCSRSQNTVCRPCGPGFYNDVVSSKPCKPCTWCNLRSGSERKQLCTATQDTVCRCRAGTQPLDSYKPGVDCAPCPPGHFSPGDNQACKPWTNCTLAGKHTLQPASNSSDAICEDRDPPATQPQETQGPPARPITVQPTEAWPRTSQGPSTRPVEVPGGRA

| Binder | association response [1] [nm] | association response [2] [nm] | association response [3] [nm] | association response [4] [nm] | association response [5] [nm] | association response [6] [nm] | association response [7] [nm] | association response [8] [nm] | association response [9] [nm] | association response [10] [nm] | association response [11] [nm] | association response [12] [nm] | association response [13] [nm] | association response [14] [nm] | association response [15] [nm] | association response [16] [nm] |
| --- | --- | --- | --- | --- | --- | --- | --- | --- | --- | --- | --- | --- | --- | --- | --- | --- |
| IgG1-CD134-MEDI0562 (antibody, INN chains, looked up, V domains shown, IgG1) VH: QVQLQESGPGLVKPSQTLSLTCAVYGGSFSSGYWNWIRKHPGKGLEYIGYISYNGITYHNPSLKSRITINRDTSKNQYSLQLNSVTPEDTAVYYCARYKYDYDGGHAMDYWGQGTLVTVSS VL: DIQMTQSPSSLSASVGDRVTITCRASQDISNYLNWYQQKPGKAPKLLIYYTSKLHSGVPSRFSGSGSGTDYTLTISSLQPEDFATYYCQQGSALPWTFGQGTKVEIK | 1.39 | 0 | 0.41 | 0.82 | -0.02 | 0.69 | 0.01 | 0 | 0.32 | 0.14 | 0.54 | 0.15 | 1.14 | 1.73 | 0 | 0.28 |
| IgG1-CD134-GBR830 (antibody, INN chains, looked up, V domains shown, IgG1) VH: QVTLKESGPALVKPTQTLTLTCSFSGFSLSTSGMGVGWIRQPPGKALEWIAHIWWDDDKYYNTALKTRLTISKDTSKNQVVLTMTNMDPVDTATYYCARIDWDGFAYWGQGTLVTVSS VL: EIVLTQSPATLSLSPGERATLSCRASSSVSYMHWYQQKPGQAPRPWIYATSNRATGIPARFSGSGSGTDYTLTISSLEPEDFAVYYCQQWSSNPWTFGQGTKVEIK | 0.97 | 0.61 | 0.28 | 0.84 | -0.01 | 0.02 | 0.19 | 0.01 | 0.01 | 0.13 | -0.02 | 0 | 0.07 | 1.08 | 0.33 | 0.02 |

Continued, values first:

| association response [1] [nm] | association response [2] [nm] | association response [3] [nm] | association response [4] [nm] | association response [5] [nm] | association response [6] [nm] | association response [7] [nm] | association response [8] [nm] | association response [9] [nm] | association response [10] [nm] | association response [11] [nm] | association response [12] [nm] | association response [13] [nm] | association response [14] [nm] | association response [15] [nm] | association response [16] [nm] | Binder |
| --- | --- | --- | --- | --- | --- | --- | --- | --- | --- | --- | --- | --- | --- | --- | --- | --- |
| 1.27 | 0.02 | 0.29 | 0.87 | -0.04 | 0 | 0.04 | 0.01 | 0.01 | 0.13 | -0.03 | 0 | 0 | 1.68 | -0.01 | 0.01 | IgG1-CD134-ABBV368 (antibody, INN chains, looked up, V domains shown, IgG1) VH: EVQLVESGGGLVQPGGSLRLSCAASGFTFSRYGMSWVRQAPGKGLELVATINSNGGRTYYPDSVKGRFTISRDNAKNSLYLQMNSLRAEDTAVYYCAREGITTAYAMDYWGQGTTVTVSS VL: DIVMTQSPDSLAVSLGERATINCKASQSVDYDGDSYMHWYQQKPGQPPKLLIYAASILESGVPDRFSGSGSGTDFTLTISSLQAEDVAVYYCQQSNEDPRTFGGGTKVEIK |
| 0.66 | 0.02 | 0.47 | 0.54 | 0.01 | 0.1 | 0.01 | 0.02 | 0.26 | 0.11 | 0.41 | 0.02 | 0.47 | 1.38 | 0.02 | 0.23 | IgG1-CD134-RG7888 (antibody, INN chains, looked up, V domains shown, IgG1) VH: EVQLVQSGAEVKKPGASVKVSCKASGYTFTDSYMSWVRQAPGQGLEWIGDMYPDNGDSSYNQKFRERVTITRDTSTSTAYLELSSLRSEDTAVYYCVLAPRWYFSVWGQGTLVTVSS VL: DIQMTQSPSSLSASVGDRVTITCRASQDISNYLNWYQQKPGKAPKLLIYYTSRLRSGVPSRFSGSGSGTDFTLTISSLQPEDFATYYCQQGHTLPPTFGQGTKVEIK |
| 1.06 | 0.02 | 0.29 | 0.8 | -0.01 | 0.05 | 0.03 | 0 | 0.01 | 0.13 | 0.01 | -0.01 | 0.05 | 1.39 | 0.31 | 0.01 | IgG1-CD134-Hu106 (antibody, from another filing, V domains shown) VH: QVQLVQSGSELKKPGASVKVSCKASGYTFTDYSMHWVRQAPGQGLKWMGWINTETGEPTYADDFKGRFVFSLDTSVSTAYLQISSLKAEDTAVYYCANPYYDYVSYYAMDYWGQGTTVTVSS VL: DIQMTQSPSSLSASVGDRVTITCKASQDVSTAVAWYQQKPGKAPKLLIYSASYLYTGVPSRFSGSGSGTDFTFTISSLQPEDIATYYCQQHYSTPRTFGQGTKLEIK |
